Target: IL-4R (UniProt P24394)
Test: cell-based or functional assay

B1: anti-IL-4R:anti-CD63 conjugate (streptavidin-conjugated anti-IL-4R antibody combined 1:1 with biotinylated anti-CD63 antibody MEM-259) (protein, part only; not given: anti-CD63 antibody MEM-259, part only)
VH: EVQLVESGGGVVQPGRSLRLSCVASGFTFSDYGMHWVRQAPGKGLEWVAVIWYDGSIKYFRDSVKGRFTISRDNSKNTLYLQMNSLRVEDTAHYYCAKESSSWYFYHGLDVWGQGTMVTVSS
VL: EIVMTQSPLSLPVSPGEPASISCRSNQSLLHSNGNNYLAWYLQKPGQSPHLLIYLGSNRASGVPDRFSGSGSGTDFTLKISRVEAGDVGTYFCMQSLQAPPFTFGPGTKVEIKR
modifications: antibody conjugated to streptavidin
attenuation of IL-4R activity beyond the control constructs: > 10%

Reference: patent publication US20220008548A1
